We go through one protein from FireProtDB (doi:10.1007/s00792-015-0748-z).

The conditions of the data set: Pyrococcus furiosus (strain ATCC 43587 / DSM 3638 / JCM 8422 / Vc1), 60 °C, GdnHCl, Fluorescence, Tris, NaCl, transition: 2, reversible: yes, whole UniProt chain shown.

B1: L-asparaginase wild type, Q8TZE8 (protein)
chain: MKILLIGMGGTIASVKGENGYEASLSVKEVLDIAGIKDCEDCDFLDLKNVDSTLIQPEDWVDLAETLYKNVKKYDGIIVTHGTDTLAYTSSMISFMLRNPPIPIVFTGSMIPATEENSDAPLNLQTAIKFATSGIRGVYVAFNGKVMLGVRTSKVRTMSRDAFESINYPIIAELRGEDLVVNFIPKFNNGEVTLDLRHDPKVLVIKLIPGLSGDIFRAAVELGYRGIVIEGYGAGGIPYRGSDLLQTIEELSKEIPIVMTTQAMYDGVDLTRYKVGRLALRAGVIPAGDMTKEATVTKLMWILGHTNNVEEIKVLMRKNLVGELRD
Take B1: under “pH 8”, the denaturant m value was 5.12 kcal/mol/M, the “denaturant midpoint (higher = more stable)” value worked out at 3.04 M and the unfolding free energy is 15.7 kcal/mol. In addition, under “pH 9”, the denaturant m value amounted to 0.9 kcal/mol/M, the “denaturant midpoint (higher = more stable)” value amounted to 1.99 M and the unfolding free energy turned out to be 1.6 kcal/mol.
